These results are taken from patent US20240317847A1 (Bayer, published 2024).

The target in one experiment is T1, rat IL-11 (rat, UniProt Q99MF5 22-199).
T1 construct: Invigate recombinant protein; also called rIL11
T1 sequence: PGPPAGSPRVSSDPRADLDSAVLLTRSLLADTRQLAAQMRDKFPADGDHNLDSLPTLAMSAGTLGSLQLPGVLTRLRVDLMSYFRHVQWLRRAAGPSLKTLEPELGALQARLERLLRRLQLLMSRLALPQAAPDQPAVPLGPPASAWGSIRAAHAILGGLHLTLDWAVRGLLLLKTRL
The experiment is described as follows: SPR (Biacore), 37 C, antibody captured via anti-Fc, IL-11 as analyte. A general note: SPR reads the build-up and loss of mass on a sensor chip optically.

The target of the next experiment is T2, cynomolgus IL-11 (cynomolgus, UniProt P20808 22-199).
T2 construct: Invigate recombinant protein; also called cIL11; Macaca IL-11
T2 sequence: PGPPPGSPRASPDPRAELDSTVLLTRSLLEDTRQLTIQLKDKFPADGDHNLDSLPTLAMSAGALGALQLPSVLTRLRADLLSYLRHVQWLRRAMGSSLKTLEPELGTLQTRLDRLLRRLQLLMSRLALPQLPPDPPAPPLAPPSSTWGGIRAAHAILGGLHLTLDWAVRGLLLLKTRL
The description is as above.

Another experiment concerns the target T3, human IL-11 (human, UniProt P20809 22-199).
T3 construct: Invigate recombinant protein; biotinylated when immobilized in the Di-complex ELISA; also called hIL11; hIL-11
T3 sequence: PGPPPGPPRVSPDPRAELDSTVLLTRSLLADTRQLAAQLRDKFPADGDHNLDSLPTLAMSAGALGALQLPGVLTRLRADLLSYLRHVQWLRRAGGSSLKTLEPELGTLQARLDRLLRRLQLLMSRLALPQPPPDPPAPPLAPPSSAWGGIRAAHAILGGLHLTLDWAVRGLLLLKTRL
The experiment is described as above.

Another experiment concerns the target T4, human IL2Ra (human, UniProt P01589 22-240, limits assumed).
T4 construct: coated on the ELISA plate; also called IL-2 receptor alpha
T4 sequence (looked up): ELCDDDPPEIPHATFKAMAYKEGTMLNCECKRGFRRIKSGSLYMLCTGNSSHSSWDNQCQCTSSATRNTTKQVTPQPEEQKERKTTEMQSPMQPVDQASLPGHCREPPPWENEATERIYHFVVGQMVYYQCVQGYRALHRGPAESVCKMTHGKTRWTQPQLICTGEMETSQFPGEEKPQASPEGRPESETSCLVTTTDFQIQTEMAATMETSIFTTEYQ
The experiment is described as follows: ELISA on coated IL2Ra, signal ratio to isotype control TPP-10159 at 3.3E-7 M antibody.

B1: TPP-29528 (antibody, mouse IgG1)
heavy: EVQLLESGGGLVQPGGSLRLSCAASGFTFSSYGMHWVRQAPGKGLEWVAVISYDGSYKYYADSVKGRFTISRDNSKNTLYLQMNSLRAEDTAVYYCAAGVPDYWGQGTLVTVSSAKTTPPSVYPLAPGSAAQTNSMVTLGCLVKGYFPEPVTVTWNSGSLSSGVHTFPAVLQSDLYTLSSSVTVPSSTWPSETVTCNVAHPASSTKVDKKIVPRDCGCKPCICTVPEVSSVFIFPPKPKDVLTITLTPKVTCVVVDISKDDPEVQFSWFVDDVEVHTAQTQPREEQFNSTFRSVSELPIMHQDWLNGKEFKCRVNSAAFPAPIEKTISKTKGRPKAPQVYTIPPPKEQMAKDKVSLTCMITDFFPEDITVEWQWNGQPAENYKNTQPIMDTDGSYFVYSKLNVQKSNWEAGNTFTCSVLHEGLHNHHTEKSLSHSPGK
light: QSVLTQPPSASGTPGQRVTISCSGSSSNIGSDYDVHWYQQLPGTAPKLLIYSNEERPSGVPDRFSGSKSGTSASLAISGLRSEDEADYYCSAWDSSLSGPVFGGGTKLTVLGQPKSSPSVTLFPPSSEELETNKATLVCTITDFYPGVVTVDWKVDGTPVTQGMETTQPSKQSNNKYMASSYLTLTARAWERHSSYSCQVTHEGHTVEKSLSRADCS
notes: mIgG1, Lambda
Regarding B1, the figures for the dissociation constant Kd with rat IL-11, in the experiment with cynomolgus IL-11 and with human IL-11 were 0.33 nM, 0.2 nM and 0.34 nM, respectively. Besides, the “Antibody/Isotype Control Ratio of IL-2Ra Binding Signals” value with human IL2Ra is 24.2 ratio.

B2: TPP-29519 (antibody, mouse IgG1)
heavy: QVQLVESGGGVVQPGRSLRLSCAASGFTFSHYDMHWVRQAPGKGLEWVAVISYHGSVKFYADSVKGRFTISRDNSKNTLYLQMNSLRAEDTAVYYCARTPGFHFDYWGQGTLVTVSSAKTTPPSVYPLAPGSAAQTNSMVTLGCLVKGYFPEPVTVTWNSGSLSSGVHTFPAVLQSDLYTLSSSVTVPSSTWPSETVTCNVAHPASSTKVDKKIVPRDCGCKPCICTVPEVSSVFIFPPKPKDVLTITLTPKVTCVVVDISKDDPEVQFSWFVDDVEVHTAQTQPREEQFNSTFRSVSELPIMHQDWLNGKEFKCRVNSAAFPAPIEKTISKTKGRPKAPQVYTIPPPKEQMAKDKVSLTCMITDFFPEDITVEWQWNGQPAENYKNTQPIMDTDGSYFVYSKLNVQKSNWEAGNTFTCSVLHEGLHNHHTEKSLSHSPGK
light: QSVLTQPPSASGTPGQRVTISCSGSSSNIGSNYVSWYQQLPGTAPKLLIYYDDLRPSGVPDRFSGSKSGTSASLAISGLRSEDEADYYCSAWDDSLSGVVFGGGTKLTVLGQPKSSPSVTLFPPSSEELETNKATLVCTITDFYPGVVTVDWKVDGTPVTQGMETTQPSKQSNNKYMASSYLTLTARAWERHSSYSCQVTHEGHTVEKSLSRADCS
notes: mIgG1, Lambda
Consider B2, for which the values for the Kd with rat IL-11, with cynomolgus IL-11 and with human IL-11 were 0.023 nM, 0.61 nM and 0.01 nM, respectively. In the experiment with human IL2Ra, the “Antibody/Isotype Control Ratio of IL-2Ra Binding Signals” value amounted to 0.7 ratio.

One may read the Kd as the concentration at which binding is half-saturated. Low values mean higher affinity, high ones lower affinity.
